Data from the nanobody polyreactivity screen of Harvey et al. (2022).

Test: yeast display, Sf9 membrane polyspecificity reagent, FACS + sequencing; frameworks hold sequencing errors
Method in brief: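 After 36–48 hours of galactose induction, yeast (Saccharomyces cerevisiae BJ5465) displaying a synthetic nanobody library were stained at 4 °C for 1 hour with 10% biotinylated, detergent-solubilized Sf9 membrane reagent. Streptavidin microbeads enriched the stained cells before FACS sorting into low and high (top ~1%) gates on anti-HA and streptavidin fluorescence. Each clone's polyreactivity label reflects its gate of origin.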

Row | Sequence | polyreactivity (PSR sort gate)
1 | QDQLVESGGGLVQAGGSLRLSCAASGRTFVYNAMGWYRKAPGKVRELVAAITRGGSTNYADSVKGRFTISRDNAKNTVYLQMNILKPEDTAGYYCAAGLKRYGSYPWLKSGMGYWGQGTQVTVSS | high polyreactivity
2 | QVQLVESGGGLVQAGGSLRLSCAASGSIFPHNAMGWYRQAPGKERELVAAISVSRGSTYYADSVKGRFTISRDNAKNTVYLQMNSLKPEDTAVYYCAAYAYGGRINGYRTYRYNYWGQGTQVTVSS | high polyreactivity
3 | QVQLVDSGGGLVQAGGSLPLSCAASGFSFVYYAMAWYREAPGKEREFVAAITERGGSTDYADSVKGRFTISRDNAKNTVYLQMNSLKPEDTAVYYCASRNAYVYGMDYWGQGTQVTVSS | low polyreactivity
4 | QVQLVESGGGLVQAGGSLRLSCAASGGIFIGYAMGWYRPAPGKERELVARIRSSGGTTYYADSVKGRFTISRDNAKNTVYLQMNSLKPEDTAVYYCAKRTSSSWAYGPYYYWGQGTQVTVSS | high polyreactivity
5 | QVQLVESGGGLVQAGGSLRLSCAASGFIFRYNTMGWYRQEPGKERELVAAISKSGGRTYYADSVKGRFTISRDNAMNTVYLQMNSLNPEDTAVYYCAATLSYTGSKRYDYWGQGTQVTVSS | high polyreactivity
6 | QVQLVESGGGLVQAGGSLRLSCAASGRTFARYAMGWYRPAPGKERELVASITRTGGSTYYADSVKGRFTISRDNAKNTVYFQLNSLKPEDTAVYDCATQSWKVRSKMDYWGQGTQVTVSS | high polyreactivity
7 | QVQLVESGGGLVQAGGSLRLSCAASGSPFTRYTMGWYRHAPGKERELVASITRTGSTNYADSVKGRFTISRDNAKNTLYFQMNSLKPEDTAVYYCAAGRYYSYRFSFGYWGQGTQVTVSS | high polyreactivity
8 | QVQLVESGGGLVQAGGSLRLSCAASGRTFSVNAMGWYRQAPGKERELVAAISWDGGSTYYADSVKGRFTISRDNAKNTVYLQMNSLKPEDTAVYYCNADYSIPGYYWPYDYWGQGTQVTVSS | low polyreactivity
9 | QVQLVESGGGLVQAGGSLRLSCDASGRTSGINAMGWYRQAPGKERELVAAISSGGRTYYADSVKGRFTISRDNAKNTVYLQMNSLKPEDTAVYYCAAVIHWSLYRRMEYWGQGTQVTVSS | high polyreactivity
10 | QVQLQESGGGLVQAGGSPRLSCAASDNIFPDSGMCWYRQAPGKERELVATIGFGATRNYADSVKGRFTISRDNAKNTVYLQMNSLQPEDTAVYYCAADPLNYQYFCYWGQGTQVTVSS | low polyreactivity
11 | QVHLVESGGGLVQAGGSLRLSCAASGSSFRYYAMGWYRQAPGKERELVAAISGSGGRTYYADSVKGRFTISRDNEKNNVYLQMNSLKPEDTAVYYCAAQSGYYDSAYGYWGQGTKVTVSS | high polyreactivity
12 | QVQLVESGGGLVQAGGSLSLICAASGRIFLRNDMGWYRQAPGKERELVAGISSDGSTYYADSVKGRFTISRDNAKNTVYLQMNSLKPEDTAVYYCAAERWGNPTDYQFWRPYDYWGQGTQVNVSS | low polyreactivity
13 | QVQLEESGGGLVQAGGSLRLSCAASGRIFRANAMGRYRQAPGKERELVADITRRGASTYYADSVKGRFTISRDNAKNTVYLQMNSLKPEDTAVYYCNARGWPSSLLYLRDRYQMDYWGQGTQVTVSS | low polyreactivity
14 | QVQLVESGGGLVQAGGSLRLSCAASGSIFYYYAMVWSRQAPGKERELVAAISSGGRTYYADSVKGRFTISRDNAKYTVYLQMNSLKPEDTAVYYCAAVLRSNRGGYWGQGTQVTVSS | high polyreactivity
15 | QVQLGESGGVLVQAGGSLSLSCAASGNIFGRYAMGWYRQAPGKEWELVAANTRSAGSTYYADSVKGRFTISRDNEKTTVYFQMNSLKPEDTAVYYCAAAHWGYAYRRYGYGGQGTQVTVSS | high polyreactivity
16 | QVQLVDSGGGLVQAGGSLRLSCAASGSNFTKYAMGWYRQAPGKERELVAAILRSGDRTYYADSVKGRFTISRDNAKNTVYLQMTSMIPEDTAVYYCAAGYSQYWTDPQGFAYDYWGQGTQVTVSS | low polyreactivity
17 | QVQLVESGGGLVQAGGSLRLSCAASGSIFRSYAMGWYRQAPGKERELVSAIRGSDGNTYYADSVKGRFTISRDNAKNTVYLQMNSLKPEDTAVYYCNARSYGYRTSRARYNYWGQGTQVTVSS | high polyreactivity
18 | QVQLVESGGGLVQAGGSLRLSCAASGRTFRPYAMGWYRPAPGKERELVAAITGGTRTYYADSVKGRFTISRDNAKNTVYLQMNSLKPEDTAVYYCAKGDFFSKHDYWGQGTQVTVSS | low polyreactivity
19 | QVQLVESGGGLVQAGGSLRLSCAASGSTFHLYAMGWYRQAPGKETEIVAAIRGRGGNTYADSVKGRFTISRDNAKHTVYFQMNSLKPEDTAVSYCATSISEYQDFTRYDYWGQGTQVTVSS | low polyreactivity
20 | QVQLVESGGGVVQAGGSLRLSCAASGITFSRYAMGWYRQAPGKERELVAAISGSGGRTYYADSVKGRFTISRDNAKNTVYLQMNSLKPEDTAVYYCARESSYYKYYYWGQGTQVTVSS | high polyreactivity
21 | QVQREESGGGLVQAGGSLRLSCAASGRIMNINAMGWYRPATGKERERVAAITWRGGRTFYADSVKGRFTISRDNAKNTVYLQMNSLKAEDTAVYYCAASSNSWYPTGYYWGQGTQVTVSS | high polyreactivity
22 | QVQLVESGGGLVQAGGSLRLSCAASGRIFGYNVMGWYRQAPGKERELVAAISYGGGRTTYADSVKGRFTISRDNAKNTVYLQMNSLKPEDTAVYYCNAGGQHVTLDNGDYWGQGTQVTVSS | high polyreactivity

Row | Sequence | polyreactivity (PSR sort gate)
23 | QVQLVESGGGLVQAGGSLRLSCAASGFTFPENAMGWYRQAPGKERELVAAISYRGASTFYADSVKGRFTISRDNAKNTVYLQLISLKPEDTAVYYCATDPRIRYQGNPYDYWGQGTQVTVSS | high polyreactivity
24 | QVQLVESGGGLDQAGGSLRLSCAASGSIFNDNVMGWYRQAPWKERELVAGISRSGTRTYYADSVKGRFTISRDNAKNTVYLQMNSLKPEDTAVYYCAAAYGQARRYNGSQYGSWGQGTQVTVSS | high polyreactivity
25 | QVQHVESGGGLFQAGGSLRLSCAASGRIFSYYAMGWYRQAPGKERELVAAINWNGGRTYYADSVKGRFTISRDNAKNSVYLQMNSLKPEDTAVYYCNARYSGKYDYWRQGTQVTVSS | high polyreactivity
26 | QVQLVESGGGLVQAGGSLRLSCAASGSILGDYAMGWDRQAPGKEREFVAAIDGSDGSTYYADSVKGRFTISRDNAKNTVYLQMNILKPEDTEVYYCAATDYDTYRSSWYVYWGQCTQVTVSS | low polyreactivity
27 | QVQLVESGGGLVQAGGSLRLSSAASGSIFASYAMGWYRQAPGKERELVAAISRSGGSTYYADSVKGRFTISRDNAKNTVYLQMNSLIPEDTAVYYCATGKIREDDYWGQGTQVTVSS | high polyreactivity
28 | QVQLVESGGGLVQAGGSLRLSCAASGRIFGDYAMGWYRQAPGKERELVADITWSGGSTYYADSVKGRFTISRDNAKNTVYLQMNSLKPEDTAVYYCNADVWFYYTFDYWGQGTQVTVSS | low polyreactivity
29 | QVQLEESVGGLVQAGGSLRLSCAASGFIFPYYTMGWYRQAPGKERELVAAISRTAVGTYYADSVKGRFTISRDNAKNTVYLQMNSLKPEDTAVYYCAVVTQRKYDYWGQGTQVTVSS | high polyreactivity
30 | QVQLVESGGGLVQAGGSLRLSCASSGRIFRWYAMGWYRQAPGKERELVAAISRSGTSTYYADSVKGRFTISRDNAKNTVFLQMNSLKPEDTAVYYCNTDVQVYSYNYWGQGTQVTVSS | low polyreactivity
31 | QVQLVESGGGLVQAGGSLRLSCAASGFIFRDNAMGWYRPAPGKERELVAAISKSGGRTYYADSVKGRFTISRDNAKNTVYLQMNSLKPEDTAVYYCAKASRYWSLYYWGQGTQVTVSS | high polyreactivity
32 | QVQLVESGGGLVQAGGSLRLSCAASGFTFVPYAMGWYRQAPGKERELVAAISGSGGSTYYADSVKGRFTISRDNAKNTVYLQMNSLKPEDTAVYYCNADRRWAYYWGQGTQVTVSS | high polyreactivity
33 | QVQLVESGGGLVQAGGSLRLSCAASGSIFIRYAMGWSRQAPGTEREWVAAITSTGSTSYADSVNGRFTISRDNAKNTVYLQMNRLTPEDTAVYYCAKEASLVQGVIGGYPYDSWGQGTQVTVSS | low polyreactivity
34 | QVQLVESGGGLVHAGGSLRLSCAASGSIYPYYAMGWYRQAPGKERELVAVISRGGVRTYYADSVKGRFTISRDNAKNTVYLQMNSLKTEDTAVYYCAAGYPYGVDYWGQGTQVTVSS | high polyreactivity
35 | QVQLVESRGGLVQAGGSLRLSCAASGRIILIYAMGWYRQAPGKERELVGDISKGGSSTYYADSVKGRVTISRDNAQNTVYLQMNSLKPEDTAVYYCAASGRWTGRQAAYDYWGQGTQVTVSS | high polyreactivity
36 | QVQLRESGAGGRQPAPELLGERQYFYWSADGLVSQAPGKEREFVAGIDRGTITNYADSVRGRFTISRDNAKNTVFRQMNSLKPEDTAVYYCAVPAYGDPRSYYWGQGTHVTVSS | high polyreactivity
37 | QVQLVESGGGLVQAGGSLRLSCAASGIIFGWYAMGWYRQAPGKERELVAAINWSGTSTYYADSVKGRFTISRDNAKNTVYLQMNSLKPEDPAVYYCAAYFQKLPTTGYEYWGQGTQVTVSS | low polyreactivity
38 | QVQLVESGGGLVQAGGSGRLSCAASGITCAYYAMGWYRQAAGKERELVAVITSGGRPNYADSVKGRVTISRDNAKNTVYLQMNSLKPEDTAVYYCAAYRSSKTLRRGYYYWGQGTQVTGSS | high polyreactivity
39 | QVQLVESGGGLVQAGGSLRLSCAASGLIFEYYAMGWYRQAPGKERELGAAISGSGGSTYYADSVKGRFTISRDNAKNTVSLQMNSRKPEDTAVDYCNVVGYRWSEFDYWGQGTQVTVSS | low polyreactivity
40 | QVQLVESGGGLVQAGGSLRLSCAASGSIFYYNAMGWYRQAPGTERELVAAITSSGGSTYYADSVKGRFTISRDNAKNTVYLQMNSLKPEDTAVYYCNADQDAYYLVYIATYDYWGQGTQVTVSS | low polyreactivity
41 | QVQLVESGGGLVQAGGSLRLSCAASGRTFYEYAMGWYRQAPGKESELVASIRSGGSTFYADSVKGRFTISRDNAKYTVYLQMNSLKPEDTAVYYCAAYRVPPYRYRFARVNYWGQGTQVTVSS | high polyreactivity
42 | QVQLVESGGGLVQAGGSLRLSCAPSGFIFTLYAMGWYRQAPGKERELVASISSGGSTNYADSVKGRFTISRDNAKNTVYLQMHSLKPEATAVYYCDAYYYSKSDRFSGRYGRYYWGQVTQVTVSS | high polyreactivity
43 | QVQLVESGGGLVQAGGSLRLSCAASGSIFTRYAMGWYRQAPGKERELVAAITASGGRTYYADSVKGRFTISRDNAKNTVYLQMNSLKPEDTAVYYCNTYWRYTSQLPYDYWGQGTQVTVSS | high polyreactivity
